Reference: the supplement of paper PMC10724198
± gives the standard deviation of the averaged measurements.

Test system: Saccharomyces cerevisiae
Test: protein stability index of tFT-peptide fusion (C-terminal peptide) (PSI (0-1 scale)); higher = more stable (slower turnover)
Settings: temperature: 30 C
Protocol: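 MPS profiling in S. cerevisiae of the yeast C-terminome library: the last 12 aa of each annotated ORF are fused to the C-terminus of a sfGFP-mCherry timer, after a GGGS linker. Cells are FACS-sorted into 8 mCherry/sfGFP bins and deep-sequenced. PSI runs from 0 (unstable) to 1 (stable); wild type and das1Δ backgrounds, two technical replicates each.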

[1] = genetic background: das1 deletion

| Sequence | protein stability index [1] | protein stability index (genetic background: wild type) |
| --- | --- | --- |
| SKEFVGSVYLNF [TRL1 C-terminal 12 aa] | 0.679 ± 0.009 | 0.678 ± 0.03 |
| SKILFLCQINIS [YNR042W C-terminal 12 aa] | 0.312 ± 0.03 | 0.313 ± 0.015 |
| SKIPSSLYIYHM [YGL042C C-terminal 12 aa] | 0.7073 ± 0.0067 | 0.619 ± 0.04 |
| SKLNAVHTANEK [SEC8 C-terminal 12 aa] | 0.712 ± 0.016 | 0.686 ± 0.022 |
| SLENVAMLVYKK [TRM13 C-terminal 12 aa] | 0.698 ± 0.048 | 0.66 ± 0.026 |
| SLKPSEKKLYYL [NTH2 C-terminal 12 aa] | 0.721 ± 0.0073 | 0.663 ± 0.02 |
| SLLGIQKSVRNL [MDM20 C-terminal 12 aa] | 0.691 ± 0.056 | 0.6654 ± 0.006 |
| SLNQPELINFKS [IZH4 C-terminal 12 aa] | 0.714 ± 0.017 | 0.71 ± 0.046 |
| SLQKIDATYIRG [SDS22 C-terminal 12 aa] | 0.702 ± 0.017 | 0.687 ± 0.017 |
| SLSSLSNQRCTT [YCR023C C-terminal 12 aa] | 0.709 ± 0.011 | 0.68 ± 0.052 |
| SMGNYYKSFFSM [OMA1 C-terminal 12 aa] | 0.704 ± 0.02 | 0.6294 ± 0.0025 |
| SNHECSQINLLE [YCL021W C-terminal 12 aa] | 0.695 ± 0.018 | 0.688 ± 0.017 |
| SPTRKRPPPRLS [INN1 C-terminal 12 aa] | 0.726 ± 0.0049 | 0.722 ± 0.0076 |
| SQDDSILSSDPF [NIS1 C-terminal 12 aa] | 0.715 ± 0.015 | 0.666 ± 0.014 |
| SQFVNDPFWANI [HIS2 C-terminal 12 aa] | 0.757 ± 0.031 | 0.756 ± 0.04 |
| SQIRTPLVMLLM [YOR318C C-terminal 12 aa] | 0.651 ± 0.025 | 0.454 ± 0.0056 |
| SQPDYKYLFDTQ [YRM1 C-terminal 12 aa] | 0.71 ± 0.027 | 0.623 ± 0.025 |
| SRIIIKAARGII [YOR082C C-terminal 12 aa] | 0.704 ± 0.042 | 0.678 ± 0.019 |
| SRRFYRKIDHLA [YLR400W C-terminal 12 aa] | 0.699 ± 0.02 | 0.507 ± 0.018 |
| SRVVLSQGDSDD [TOF1 C-terminal 12 aa] | 0.68424 ± 0.00057 | 0.662 ± 0.026 |
| SSSSLYTESPIR [IGO1 C-terminal 12 aa] | 0.7011 ± 0.0054 | 0.717 ± 0.066 |

| Sequence | protein stability index [1] | protein stability index (genetic background: wild type) |
| --- | --- | --- |
| SSVVSIPLREIL [YNR048W C-terminal 12 aa] | 0.712 ± 0.016 | 0.711 ± 0.07 |
| STITSMNPDTTK [VHS2 C-terminal 12 aa] | 0.711 ± 0.031 | 0.669 ± 0.04 |
| STKATPTDLSKL [MLS1 C-terminal 12 aa] | 0.7565 ± 0.0027 | 0.8075 ± 0.0051 |
| STTMNFNYQTKV [SDD1 C-terminal 12 aa] | 0.696 ± 0.011 | 0.363 ± 0.0082 |
| STVLINVCKPTY [BAR1 C-terminal 12 aa] | 0.681 ± 0.013 | 0.667 ± 0.048 |
| SVFIAAVAAMLI [CCW14 C-terminal 12 aa] | 0.603 ± 0.013 | 0.586 ± 0.016 |
| SVSYASGYVTIG [MHO1 C-terminal 12 aa] | 0.705 ± 0.034 | 0.64 ± 0.011 |
| SVTAGYLPDLWR [YCH1 C-terminal 12 aa] | 0.73 ± 0.0093 | 0.728 ± 0.036 |
| SYEIVKNGHKNS [APC2 C-terminal 12 aa] | 0.6772 ± 0.0007 | 0.687 ± 0.018 |
| TADIVYIDSELD [SPE1 C-terminal 12 aa] | 0.6746 ± 0.0022 | 0.694 ± 0.083 |
| TANKAGNKFQLS [LDO16 C-terminal 12 aa] | 0.707 ± 0.0029 | 0.675 ± 0.019 |
| TATAPRLFDKLK [QCR6 C-terminal 12 aa] | 0.7007 ± 0.007 | 0.662 ± 0.026 |
| TAYFICGMVIQL [YDL041W C-terminal 12 aa] | 0.349 ± 0.014 | 0.34 ± 0.011 |
| TCEACGNRWKFS [DST1 C-terminal 12 aa] | 0.7329 ± 0.0019 | 0.697 ± 0.013 |
| TCEKSKCNCEKC [CRS5 C-terminal 12 aa] | 0.682 ± 0.012 | 0.69 ± 0.082 |
| TDGSKEDVDALP [ZNF1 C-terminal 12 aa] | 0.688 ± 0.02 | 0.716 ± 0.039 |
| TEISRHFIVVFV [YHR182C-A C-terminal 12 aa] | 0.306 ± 0.0088 | 0.351 ± 0.028 |
| TEKDSTTTNYRK [YJL218W C-terminal 12 aa] | 0.702 ± 0.028 | 0.698 ± 0.034 |
| TEPESDTEVETS [WHI5 C-terminal 12 aa] | 0.676 ± 0.01 | 0.662 ± 0.013 |
| TEPLYILRWLRS [YDR290W C-terminal 12 aa] | 0.678 ± 0.008 | 0.313 ± 0.0053 |
| TFAKSSRNKSKL [PCS60 C-terminal 12 aa] | 0.835 ± 0.011 | 0.811 ± 0.073 |

| Sequence | protein stability index [1] | protein stability index (genetic background: wild type) |
| --- | --- | --- |
| TFVDDKLKELPQ [PTP3 C-terminal 12 aa] | 0.719 ± 0.042 | 0.655 ± 0.0034 |
| THKQYFWKKPAK [TOS4 C-terminal 12 aa] | 0.707 ± 0.03 | 0.688 ± 0.058 |
| TIHTEVNIGIKQ [ENA1 C-terminal 12 aa] | 0.7199 ± 0.0013 | 0.736 ± 0.027 |
| TKWHDKFGKLKN [SHE2 C-terminal 12 aa] | 0.693 ± 0.024 | 0.6795 ± 0.0042 |
| TLFDLIEKKVTA [TAL1 C-terminal 12 aa] | 0.67 ± 0.0085 | 0.652 ± 0.028 |
| TLKKIFSKRSIS [YCL049C C-terminal 12 aa] | 0.722 ± 0.02 | 0.4651 ± 0.0019 |
| TLTQEEINELST [LTE1 C-terminal 12 aa] | 0.69603 ± 0.00028 | 0.689 ± 0.041 |
| TNGLINQFKEWM [PGI1 C-terminal 12 aa] | 0.673 ± 0.015 | 0.736 ± 0.082 |
| TPLGPKPDIRPP [GTO3 C-terminal 12 aa] | 0.712 ± 0.013 | 0.693 ± 0.017 |
| TPLPGLSWPFNE [YIL014C-A C-terminal 12 aa] | 0.74 ± 0.021 | 0.74 ± 0.061 |
| TPVIDFSLKLAH [BNA6 C-terminal 12 aa] | 0.693 ± 0.017 | 0.7 ± 0.026 |
| TQQVVDDVLSRL [LYS12 C-terminal 12 aa] | 0.738 ± 0.0082 | 0.732 ± 0.038 |
| TSSTPLVIVDSK [HXT10 C-terminal 12 aa] | 0.672 ± 0.013 | 0.713 ± 0.064 |
| TTEKKKKKCVLL [RHO1 C-terminal 12 aa] | 0.684 ± 0.0099 | 0.6878 ± 0.0017 |
| TTIKNIDILNRT [SMC4 C-terminal 12 aa] | 0.717 ± 0.024 | 0.694 ± 0.048 |
| TTVDRTGNGAFW [YLR154C-H C-terminal 12 aa] | 0.703 ± 0.017 | 0.723 ± 0.036 |
| TVPEFPAPIFPN [YDL159C-B C-terminal 12 aa] | 0.72 ± 0.019 | 0.689 ± 0.0079 |
| TVQSKLGDHGFN [PEP7 C-terminal 12 aa] | 0.679 ± 0.015 | 0.707 ± 0.048 |
| TYKRIKQDEKTD [ALG12 C-terminal 12 aa] | 0.7248 ± 0.0072 | 0.707 ± 0.015 |
| VACNPVAMADHQ [TUS1 C-terminal 12 aa] | 0.71 ± 0.033 | 0.677 ± 0.019 |
| VADAMLDQGDVF [GDH3 C-terminal 12 aa] | 0.7137 ± 0.0052 | 0.6894 ± 0.0047 |

| Sequence | protein stability index [1] | protein stability index (genetic background: wild type) |
| --- | --- | --- |
| VDDYVAAGFQTL [SUT2 C-terminal 12 aa] | 0.7372 ± 0.0021 | 0.714 ± 0.018 |
| VDFLSKKLLKLR [YFL041W-A C-terminal 12 aa] | 0.694 ± 0.0088 | 0.708 ± 0.0078 |
| VDIALYLTRSQT [YGR039W C-terminal 12 aa] | 0.699 ± 0.017 | 0.694 ± 0.011 |
| VEIFVDKLIDFL [THI80 C-terminal 12 aa] | 0.674 ± 0.014 | 0.656 ± 0.027 |
| VEMAVKFGKNAF [RIB4 C-terminal 12 aa] | 0.696 ± 0.012 | 0.689 ± 0.059 |
| VESKFTEKIKSM [RPC19 C-terminal 12 aa] | 0.6704 ± 0.0024 | 0.559 ± 0.027 |
| VETELEMVAEKA [YEH1 C-terminal 12 aa] | 0.646 ± 0.0079 | 0.665 ± 0.061 |
| VFLYRKRIFIKL [GWT1 C-terminal 12 aa] | 0.606 ± 0.021 | 0.485 ± 0.023 |
| VFTPFLFGELIG [ERG1 C-terminal 12 aa] | 0.718 ± 0.0073 | 0.712 ± 0.035 |
| VHDQTNLELYYL [HUB1 C-terminal 12 aa] | 0.708 ± 0.0075 | 0.6895 ± 0.0058 |
| VHKDLDIKTVTL [PRO2 C-terminal 12 aa] | 0.691 ± 0.013 | 0.671 ± 0.0073 |
| VHKLGWSLSFDA [POR1 C-terminal 12 aa] | 0.706 ± 0.022 | 0.6642 ± 0.0033 |
| VILYRSVMKLSP [YOR073W-A C-terminal 12 aa] | 0.646 ± 0.011 | 0.66 ± 0.017 |
| VISYLLGADIHF [SMF3 C-terminal 12 aa] | 0.712 ± 0.013 | 0.7135 ± 0.0039 |
| VKDRPRGKDARL [RML2 C-terminal 12 aa] | 0.727 ± 0.058 | 0.805 ± 0.029 |
| VKKCWEKEKDGI [MKK2 C-terminal 12 aa] | 0.675 ± 0.018 | 0.663 ± 0.026 |
| VLDQITGDLKLY [PTH2 C-terminal 12 aa] | 0.691 ± 0.014 | 0.6285 ± 0.0052 |
| VLLIRSDKKKKV [YIL102C-A C-terminal 12 aa] | 0.71 ± 0.024 | 0.696 ± 0.035 |
| VLSNLAVKALQN [PRM3 C-terminal 12 aa] | 0.68 ± 0.018 | 0.646 ± 0.023 |
